From patent US20160053277A1, “Compositions Having Dicamba Decarboxylase Activity and Methods of Use” (PIONEER HI-BRED INTERNATIONAL, INC., priority 2013, published 2016)

B1: 15 (protein, listed as Metarhizium anisopliae)
chain: MAQEIAKSHETSTRFAGFAVLPMRDPEAAAKELERAVKKLGFVGALVDHKTAHGNGFCEGNEYDVLWRKAEQLAVPIYLHPSWPTEKQFQQAYAGNYSPTAAGTIGGAMFNWHSEVGHHVLRLYAAGVFDKFPKLKIIIGHFGEMIPYMLDRIREQDHRLGKTGRTFSEVYDENIWITTSGVWSLDPMRCILANTKIDHILYSVDYPFTMNERGLEWFQELEKSGLLSEEDLALIAYKNCEKLLGVKAPTQD
B2: 107 (protein, listed as Rhodopseudomonas palustris)
chain: MAIIDIHGHYTTAPKALEDWRNRQIAGIKDPSVMPKVSELKISDDELQASIIENQLKKMQERGSDLTVFSPRASFMAHHIGDFNVSSTWAAICNELCYRVSQLFPDNFIGAAMLPQSPGVDPKTCIPELEKCVKEYGFVAINLNPDPSGGHWTSPPLTDRIWYPIYEKMVELEIPAMIHVSTSCNTCFHTTGAHYLNADTTAFMQCVAGDLFKDFPELKFVIPHGGGAVPYHWGRFRGLAQEMKKPLLEDHVLNNIFFDTCVYHQPGIDLLNTVIPVDNVLFASEMIGAVRGIDPRTGFYYDDTKRYIEASTILTPEEKQQIYEGNARRVYPRLDAALKAKGK
B3: 18 (protein, listed as Legionella pneumophila)
chain: MAIVDFETHFITEACIDYLTQRQEVPKLVPELNGAYTMCFTPDVSLFHTSALMEELLSLNEQRLAIMDQAGVTIQVLSLTTINGIDSCPGDENKSTALAREVNDQLYSAIQKHPERFKGFASISPYDVKEGVKELERAISQLGFVGWLTHSNFGQDNYLDDKIYWPLLEAAESLNIPIYLHPNVPIMREFGKYGFALGGSALGFEFDTALCLMRMILGGVFDAFPKLKIMLGHLGETMPFLMERLDHLYRIPDLKPYRPSIQRIPSEVLRQNVYITTSGRFFVPALRYVLEVMGEDRVLFASDYPMESLLDATRFIQDSDLSNQTKQKIFSINAKNLNLI
B4: 20 (protein, listed as Legionella pneumophila)
chain: MAIVDFETHFITEACIDYLTQRQEVPKLVPDLNGAYTMCFTPDVSLFHTSALMEELLSLNEQRLAIMDQAGVTIQVLSLTTINGIDSCPGDENKSTALAREVNDQLYSAIQRHPERFKGFASISPYDVKEGVKELERAISQLGFVGWLTHSNFGQDNYLDDKTYWPLLEAAEGLNIPIYLHPNVPIMREFGKYGFALGGSALGFEFDTALCLMRMILGGVFDAFPKLKIMLGHLGETMPFLMERLDHLYRIPDLKAYRPSIQRIPSEVLRQNVYITTSGRFFVPALRYVLEVMGEDRVLFASDYPMESLLDATRFIQDSDLSNQTKQKIFSINAKNLNLI
B5: 9 (protein, listed as Octadecabacter antarcticus)
chain: MATPKITFEEHFMAPGFEKHSEAFLKLIPRDQAEILTRRLGDFDGERIETMDRGGITRSIISLTGPGTQGEAVEKAVSAAQGANDFLAEKISKKPDRLGGLATLPMHDPDAAARELNRAVNDLGLQGCLVNTHTHGAYYEGTDYDPFWAEVEKLGVPFYLHPSNAYVTPHVLGGMPVLQGATWGWGVETGSHALRILFGGVFDRFPDVKLVLGHMGEALPFLRWRYDSRFGAYPMGVSLDRAPSAYFGSNILITTSGVCSHPSLIGAIGEMGADAVMFSVDYPYEDTDLAVEFIETAPLEDATRVKICHDNAARLFGMPTLAAKEGA
B6: 106 (protein, listed as Pyrococcus horikoshii)
chain: MAGMKFIKNLHVSKLVIDSMKALINGTIYTSFNPLKKVSGLVISHGKVIYAGDSEVAKKIVELSGGEIVDLKGKYVMPAFFDSHLHLDELGMSLEMVDLRGAKSIEELIQRLKRGKGRIIFGFGWDQDELGEWPTRKELNAIDKPVFIYRKCFHVAVANDKMLELLNLTPSKDFDEDTGIIKEKSLEEARKVINERVLTVEDYVYYIKRAQEHLLDLGVKSVSFMSVNEKALRALFYLEREGKLSINVFAYVTPEVLDKLESIGLGRFQGNRLTIAGVKLFTDGSLGARTALLSKPYSDDPSTSGQLVMEREELIRITEKARSLGLDVAIHAIGDKALDVALDVFETTGFPGRIEHASLVRDDQLERVKNLKVRLSVQPHFIISDWWIVERVGEERVKWVYRFKDLMKVAELGFSTDSPIEPADPWLTVDAAVNRGKGKVKLYELTKDQALDIKDALHSYTYGSARVSLASDIGKLEPGFKAEYIILDRDPLVVK
B7: 17 (protein)
chain: MARGKIALEEAFEVKGMDEEIDAQAALYIAPKDVERYKRQIVSITDERLQLSDQNGIGYSILSLTVPGIQGITDKDKAEKRARDVNNYIHDQIKDHRDRLGAFAALSMHDPRQAGHELRRCVKELGFHGALLNDVQHTGEGDDDQPLFYDQPDYDEFWRVAVELDVPVYLHPAAPLRDTLIYKQSYEDRKYLVGPPQSYCNGVALHLMGIIVNGVFDRFPNLKVIVGHMGERIPFDFWRMDHWVKGVTRPLAEKNGDTVCQKEPLYYFKRNIYITTSGHFSTQNLRYLYEWLGDERMMFSVDFPYERMEHGCQWYDDDAEKIKEALGGRDGYLRVGRDNARRLFKLTKFKDCDAV
modifications: Aspergillus niger
B8: 10 (protein, listed as Starkeya novella)
chain: MARKIALEEHFTTPELAGKYVARPTQSDALFADIERRLADFDELRLEMMDRAEIDLMVLSVTTPGVQGVRDTGEAIRLARGANDFLAREVQKRPSRYAGFAHLAMQDAEAAATELERAVRELGFRGALINGQTNGHYLDEDQYAPFWERVQELDVPVYLHPGNMADSPAMFAHRPELGGPIWAWTAETAAHALRLVFGGTFTRFPGAKVILGHMGETLPFLLWRLDSRREFDLGEKLAPDALPSAIIKRNIAVTTSGVCDPAPLVAALQALSDDNVMFSVDYPYEDPQLASKFIETAPIGEETRAKVCHGNAERLLGL
B9: 8 (protein, listed as Metarhizium anisopliae)
chain: MARGKINFEEAFELPTLADSSREQAALYIAPKDLDRYIYHIKHPLGERLQLANSHGIGYTIYSLTVPGIQGIPDQSKAEQHATTVNDWIANEIKDHRDRLGAFAALSMHDAAQAAAELERCVRQHGFHGALLNNYQHAGPDGETYLFYDQPAYDVFWQKCVELDVPVYLHPAAPAGNYYKQMYAQRKYLVGPPLSFANDVSLHLLGLVTNGVFDRFPKLKVVVGHLGEHIPFDFWRISHWLEDVERPLAAGRGDVMSKKDLLYYFKNNIWVTTSGHFSTPTVRYVADYLGPERIMFSVDTPYETIENGVGWFDGEEDALTRALGGEDGYKKVARENAKKLFKLTKYHDCDA
B10: 13 (protein, listed as Metarhizium acridum)
chain: MAHGKVALEEAFALPRLHEKTRWWASLFAVNPDKHAAEMTDITDIRINYMDKHGVGYTILSYTAPGVQDISDPKEAQALAVEINDYVAGAIKNHPDRFGAFATLSMRNPQEAATELKRCVTQYGFKGALVNDTQRAGEDDMIFYDGPEWDVFWSTVEELDVPFYLHPRNPTGSLYEKLWAKRKWLVGPPLSFAQGVSLHVLGMVTNGVFDRHPKLQVVLGHLGEHIPFDMWRINHWFEDVKKPLGLDCKKTIREYFQQNIWITTSGHFSTTTLQFCMAEVGADRILFSIDYPFECFADACDWYDGVPINLVDKAKIGRDNARRLFKLPEFKDSEKHVDA
B11: 14 (protein, listed as Talaromyces marneffei)
chain: MARGKVSFEEAYEIPALADKSREQAALYIAPKDLDRYLSEIKSPTGGRLDISNKNGIGYTIYSLTVPGVQGIADKAKAEKHATDVNNWIYNEIKDHRDRMGAFAALSMHDPVQAGQELERCVKKLGFHGALLNNWQHAGTDGETYIFYDHPSYDVFWQKCVELDVPVYLHPSAPSGKVFDTFFKDRRYLIGPPISFAQDVALHTMGLITNGVFDRNPKLKLILGHLGERIPQDLWRTNHWLEDVERPLADSRGDTMSRKPLLYYFKNNIYVTTSGHFSTETVKFVCDYFGADRILFSVDSPYEKIEEGAGWYDKDKDNLTKALGGPQQYLDVGRENAKKLFKLGKYHDCDA
B12: 11 (protein)
chain: MALGKIALEEAFALPRFEEKTRWWASLFSVDPETHVKEITDINKLRIEHADKYGVGYQILSYTAPGVQDIWDPVEAQALAVEINDYIAEQIRDKPDRFGAFATLSMHNPQEAASELRRCVQTYGFKGALVNDTQRAGPDGDDMIFYDNASWDIFWQTCTELDVPLYLHPRNPTGTIYEKLWADRKWLVGPPLSFAQGVSLHVLGMVTNGVFDRHPNLQLIMGHLGEHVPFDMWRINHWFEDRKKLLGLAETCKKTIREYFAQNIWITTSGHFSTTTLNFCMAEVGVDRILFSIDYPFETFEDACVWFDGAELNLSDKAKIGRDNAARLFKLGAFRDYDAKVKA
modifications: Aspergillus niger
B13: 12 (protein, listed as Zymoseptoria tritici)
chain: MALGKVAFEEAFALPRFKERTTWWAGLFAVDPEKHTREINDINKLRIEKMDQFGVGYTLLSYTAPGVQDVWQQEEADALAREVNDHVAAEIKGHEDRLGALATLSMHDPQTASAELRRCIKDYGFKGALVNDTQRNDESGTGMIFYDGPEWDVFWSTVQELDVPFYLHPRNPTGVFMEKLWAPRKWLVGPPLSFAQGVSLHLLGMVTNGTFDRFPNLQVIIGHLGEHLPFDLWRINHWFEDIKKPLGLDCKKTIREYFNENIWITTSGHFSTPTLEYCIKEIGAERILFSIDYPFEKFEDACDWYDGVELDGPDTVKKIGRENAKKLFKLGAFKDDSA

Columns and labels:
[1] = 14C assay with IPTG-induced recombinant E. coli cells: 14CO2 captured from [14C]-carboxyl-labeled dicamba; settings: for Enzymatic Detection level: dicamba decarboxylation activity of the protein of the given SEQ ID NO, High / Low / No; for Dicamba Decarboxylase Activity: induced recombinant E. coli cells, [14C]-carboxyl-labeled dicamba, 14CO2 capture
[2] = Saturation mutagenesis of SEQ ID NO:109: dicamba decarboxylation activity of point mutants (carbon dioxide released); settings: decarboxylation activity (carbon dioxide released) of point mutant compared with unmutated backbone protein; backbone SEQ ID NO: 109

Molecule	Enzymatic Detection level [1]	Dicamba Decarboxylase Activity [1]	Fold Activity [2]
B1	Low	Low	1
B2	No	No	1.7
B3	Low	Low	1.2
B4	Low	Low	1.8
B5	No	No	1.2
B6	No	No	0.8
B7	Low	Low	1.8
B8	Low	Low	1.2
B9	Low	Low	1.3
B10	No	No	1
B11	Low	Low	1
B12	Low	Low	1
B13	No	No	0.9
